Experimental data from doi:10.1101/2023.06.21.545984.

Legend:
[1] = target: Acinetobacter baumannii 118362 Family 2A encapsulin shell protein (J517_0527) (Acinetobacter baumannii 118362); test: cryo-EM structure
[2] = target: degraded free cysteine desulfurase that has lost the N-terminal CLD (Acinetobacter baumannii 118362); test: SEC
[3] = target: free Acinetobacter baumannii 118362 cysteine desulfurase (construct RB30, C-terminally His6-tagged, tag removed) (Acinetobacter baumannii 118362); test: SEC

## Acinetobacter baumannii 118362 Family 2A encapsulin shell protein (J517_0527) (natural protein)
[1]
  stoichiometry N: 60 subunits

## Acinetobacter baumannii 118362 cysteine desulfurase (J517_0528), co-expressed from the four-gene operon (enzyme)
[1]
  stoichiometry N (CD cargo proteins per encapsulin shell): < 24

## degraded free cysteine desulfurase that has lost the N-terminal CLD (domain or fragment)
[2]
  stoichiometry N: 2

## free Acinetobacter baumannii 118362 cysteine desulfurase (construct RB30, C-terminally His6-tagged, tag removed) (enzyme)
[3]
  stoichiometry N: 2
